The test system of one series is biotinyl-Phe-oxazolone. The series can be described thus: self-aminoacylation, catalytic enhancement (BFO) (fold over background); higher = more active; k-Seq, kA / k0A0; sequences stand for … in GGGAAUGGAUCCACAUCUACGAAUUC…UUCACUGCAGACUUGACGAAGCUG
The procedure, abridged:
(§1)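 Each biotinyl-aminoacyl-oxazolone, at 2–1250 μM, was incubated with mutagenized RNA pools (0.43 μM) carrying a 21-nt variable region. The 50 μL reactions contained HEPES/NaCl/KCl/MgCl2/CaCl2 buffer with 5% acetonitrile at pH 6.9–7.0 and ran for 90 minutes at room temperature. After streptavidin capture, RNA was measured by qPCR in triplicate and by Illumina sequencing, and catalytic enhancement was calculated as median kA over the uncatalyzed rate from a pseudo-first-order fit of per-sequence fraction reacted.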

In another series the test system is biotinyl-Ile-oxazolone. The series is described as follows: self-aminoacylation, catalytic enhancement (BIO) (fold over background); higher = more active; k-Seq, kA / k0A0; sequences stand for … in GGGAAUGGAUCCACAUCUACGAAUUC…UUCACUGCAGACUUGACGAAGCUG
The procedure, abridged: as §1

The subject of a further series is biotinyl-Met-oxazolone. The series is described as follows: self-aminoacylation, catalytic enhancement (BMO) (fold over background); higher = more active; k-Seq, kA / k0A0; sequences stand for … in GGGAAUGGAUCCACAUCUACGAAUUC…UUCACUGCAGACUUGACGAAGCUG
The procedure, abridged:
as §1

A further series deals with biotinyl-Leu-oxazolone. The series is described as follows: self-aminoacylation, catalytic enhancement (BLO) (fold over background); higher = more active; k-Seq, kA / k0A0; sequences stand for … in GGGAAUGGAUCCACAUCUACGAAUUC…UUCACUGCAGACUUGACGAAGCUG
An outline of the steps: as §1

Another series concerns biotinyl-Val-oxazolone. The series is described as follows: self-aminoacylation, catalytic enhancement (BVO) (fold over background); higher = more active; k-Seq, kA / k0A0; sequences stand for … in GGGAAUGGAUCCACAUCUACGAAUUC…UUCACUGCAGACUUGACGAAGCUG
The procedure, abridged:
as §1

The next series concerns biotinyl-Trp-oxazolone. The series is described as follows: self-aminoacylation, catalytic enhancement (BWO) (fold over background); higher = more active; k-Seq, kA / k0A0; sequences stand for … in GGGAAUGGAUCCACAUCUACGAAUUC…UUCACUGCAGACUUGACGAAGCUG
The procedure, abridged: as §1

Variants at the floor of the assay were thinned out.

For “AAGUCUGCUAAUCGUCGCAAG [Fam3.1 aminoacylation ribozyme variant]”, the self-aminoacylation in the series with biotinyl-Phe-oxazolone was found to be 4.49; with biotinyl-Ile-oxazolone, 0.996; in the series with biotinyl-Met-oxazolone, 1.36; with biotinyl-Leu-oxazolone, 1.15; with biotinyl-Val-oxazolone it was 1.01; with biotinyl-Trp-oxazolone, 1.94.

In the case of “AAGUGUACUAAUAGUCGCAAG [Fam3.1 aminoacylation ribozyme variant]”, the self-aminoacylation was found to be 1.74 in the series on biotinyl-Phe-oxazolone; 1.4 with biotinyl-Ile-oxazolone; 1.17 in the series with biotinyl-Met-oxazolone; 1.2 in the series with biotinyl-Leu-oxazolone; 1.51 with biotinyl-Val-oxazolone; 1.2 with biotinyl-Trp-oxazolone.

As for “AAGUGUCCUAAUAGUCGCAAG [Fam3.1 aminoacylation ribozyme variant]”, the self-aminoacylation in the series with biotinyl-Phe-oxazolone turned out to be 0.985; in the series with biotinyl-Ile-oxazolone it was 1.18; in the series with biotinyl-Met-oxazolone it was 0.945; with biotinyl-Leu-oxazolone it was 0.952; with biotinyl-Val-oxazolone it was 0.995; in the series on biotinyl-Trp-oxazolone, 0.664.

On to “AAGUGUGCGAAUAGUCGCAAG [Fam3.1 aminoacylation ribozyme variant]”, for which the self-aminoacylation with biotinyl-Phe-oxazolone was found to be 2.28; in the series with biotinyl-Ile-oxazolone it was 1.72; with biotinyl-Met-oxazolone, 1.79; in the series with biotinyl-Leu-oxazolone, 1.76; in the series on biotinyl-Val-oxazolone, 1.82; with biotinyl-Trp-oxazolone, 1.38.

For the sequence “AAGUGUGCUAAGAGUCGCAAG [Fam3.1 aminoacylation ribozyme variant]”, the self-aminoacylation in the series with biotinyl-Phe-oxazolone worked out at 5.24; in the series with biotinyl-Ile-oxazolone it was 1.11; with biotinyl-Met-oxazolone, 1.15; in the series with biotinyl-Leu-oxazolone, 1.13; in the series with biotinyl-Val-oxazolone, 0.87; in the series with biotinyl-Trp-oxazolone, 2.15.

Regarding “AAGUGUGCUAAUAUUCGCAAG [Fam3.1 aminoacylation ribozyme variant]”, the self-aminoacylation in the series with biotinyl-Phe-oxazolone was 1.63; in the series with biotinyl-Ile-oxazolone it was 1.92; in the series on biotinyl-Met-oxazolone, 1.58; with biotinyl-Leu-oxazolone it was 1.51; in the series on biotinyl-Val-oxazolone, 1.53; in the series on biotinyl-Trp-oxazolone it was 2.22.

On to “AAGUUAGCUAACAGUCGCAAG [Fam3.1 aminoacylation ribozyme variant]”, for which the self-aminoacylation with biotinyl-Phe-oxazolone was determined as 2.2; in the series with biotinyl-Ile-oxazolone, 1.83; in the series on biotinyl-Met-oxazolone, 2.31; in the series with biotinyl-Leu-oxazolone, 1.66; with biotinyl-Val-oxazolone, 1.68; with biotinyl-Trp-oxazolone, 1.56.

“AAGUUAGCUAAUAGCCGCAAG [Fam3.1 aminoacylation ribozyme variant]”: the self-aminoacylation in the series on biotinyl-Phe-oxazolone was 1.96; in the series with biotinyl-Ile-oxazolone it was 1.88; in the series with biotinyl-Met-oxazolone, 0.903; with biotinyl-Leu-oxazolone, 1.44; in the series on biotinyl-Val-oxazolone, 1.6; with biotinyl-Trp-oxazolone, 2.02.

In the case of “AAGUUAGCUAAUAGUCGCAUG [Fam3.1 aminoacylation ribozyme variant]”, the self-aminoacylation with biotinyl-Phe-oxazolone turned out to be 3; in the series on biotinyl-Ile-oxazolone, 1.83; with biotinyl-Met-oxazolone, 1.07; with biotinyl-Leu-oxazolone, 1.97; in the series on biotinyl-Val-oxazolone it was 1.34; with biotinyl-Trp-oxazolone it was 1.64.

As for “AAGUUAGCUAAUAGUCGGAAG [Fam3.1 aminoacylation ribozyme variant]”, the self-aminoacylation was determined as 3.13 in the series on biotinyl-Phe-oxazolone; 1.07 in the series with biotinyl-Ile-oxazolone; 1.12 with biotinyl-Met-oxazolone; 1.28 in the series with biotinyl-Leu-oxazolone; 1.32 with biotinyl-Val-oxazolone; 1.94 with biotinyl-Trp-oxazolone.

As for “AAGUUAGCUUAUAGUCGCAAG [Fam3.1 aminoacylation ribozyme variant]”, the self-aminoacylation is 2.88 in the series on biotinyl-Phe-oxazolone; 1.8 in the series on biotinyl-Ile-oxazolone; 1.43 in the series with biotinyl-Met-oxazolone; 1.48 with biotinyl-Leu-oxazolone; 1.56 in the series on biotinyl-Val-oxazolone; 1.9 in the series on biotinyl-Trp-oxazolone.

Consider “AAGUUAUCUAAUAGUCGCAAG [Fam3.1 aminoacylation ribozyme variant]”, for which the self-aminoacylation with biotinyl-Phe-oxazolone stood at 2.66; with biotinyl-Ile-oxazolone it was 1.51; in the series on biotinyl-Met-oxazolone it was 1.32; with biotinyl-Leu-oxazolone it was 1.53; in the series on biotinyl-Val-oxazolone it was 1.18; with biotinyl-Trp-oxazolone it was 1.36.

On to “AAGUUCGCUAAUACUCGCAAG [Fam3.1 aminoacylation ribozyme variant]”, for which the self-aminoacylation with biotinyl-Phe-oxazolone amounted to 0.849; with biotinyl-Ile-oxazolone, 1.53; with biotinyl-Met-oxazolone, 1.47; in the series with biotinyl-Leu-oxazolone, 1.2; in the series on biotinyl-Val-oxazolone, 1.12; in the series on biotinyl-Trp-oxazolone, 0.7.

The values are drawn from the supplement of paper PMC9233669.
